Experimental findings from paper PMC8938331 (Molecular Metabolism, 2022) are described below.

Experiment [1] has as its target T1, Recombinant mouse MD2 (Beijing ABIOCENTER) (mouse, UniProt Q9JHF9 19-160).
T1 sequence (looked up): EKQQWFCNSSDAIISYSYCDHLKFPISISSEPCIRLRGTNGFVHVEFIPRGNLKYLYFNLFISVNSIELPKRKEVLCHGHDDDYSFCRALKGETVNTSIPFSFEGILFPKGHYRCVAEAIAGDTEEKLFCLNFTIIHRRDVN
Description: SPR.

Experiment [2] addresses T2, Recombinant mouse TLR4 (R&D system) (mouse, UniProt Q9QUK6 26-638).
T2 sequence (looked up): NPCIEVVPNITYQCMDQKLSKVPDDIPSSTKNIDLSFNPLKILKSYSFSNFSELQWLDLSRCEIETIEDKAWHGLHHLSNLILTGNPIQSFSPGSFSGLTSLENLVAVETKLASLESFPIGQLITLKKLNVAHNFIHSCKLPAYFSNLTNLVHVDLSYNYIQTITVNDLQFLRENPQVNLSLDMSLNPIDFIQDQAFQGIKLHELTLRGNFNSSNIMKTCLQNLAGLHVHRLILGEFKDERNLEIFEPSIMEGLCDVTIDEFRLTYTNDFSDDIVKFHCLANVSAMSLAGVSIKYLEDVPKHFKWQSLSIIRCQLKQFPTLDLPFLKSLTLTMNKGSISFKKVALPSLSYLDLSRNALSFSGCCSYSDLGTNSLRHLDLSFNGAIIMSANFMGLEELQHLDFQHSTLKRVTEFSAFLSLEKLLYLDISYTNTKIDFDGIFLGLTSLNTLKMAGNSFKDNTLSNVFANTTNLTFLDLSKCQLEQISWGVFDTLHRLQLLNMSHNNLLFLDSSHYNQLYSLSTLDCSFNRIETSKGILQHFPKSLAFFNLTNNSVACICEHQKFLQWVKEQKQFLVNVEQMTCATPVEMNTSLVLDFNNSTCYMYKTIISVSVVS
As to the kind of experiment: SPR. In general terms: Surface plasmon resonance follows binding to a sensor surface in real time, without labels.

B1: Mouse serum amyloid A1 (residues 19-122), recombinant (natural protein, UniProt P05366 19-122, looked up)
chain: GGFFSFVHEAFQGAGDMWRAYTDMKEANWKNSDKYFHARGNYDAAQRGPGGVWAAEKISDGREAFQEFFGRGHEDTIADQEANRHGRSGKDPNYYRPPGLPDKY
As usually defined, the Kd is the concentration at which binding is half-saturated. In the case of B1, the Kd in experiment [1] worked out at 123 nM; in experiment [2], 497 nM.
